Test results taken from article PMC4514735, “The FKBP52 Cochaperone Acts in Synergy with β-Catenin to Potentiate Androgen Receptor Signaling” (PLoS ONE, 2015).

Target: T1, Gal4 DNA binding domain (DBD)-AR LBD chimeric protein (UniProt P10275 669-920)
T1 construct: also called Gal4-AR LBD; Gal4-DBD fused to the AR LBD; source: in cells (two-hybrid) and in lysate (co-IP)
T1 sequence (looked up): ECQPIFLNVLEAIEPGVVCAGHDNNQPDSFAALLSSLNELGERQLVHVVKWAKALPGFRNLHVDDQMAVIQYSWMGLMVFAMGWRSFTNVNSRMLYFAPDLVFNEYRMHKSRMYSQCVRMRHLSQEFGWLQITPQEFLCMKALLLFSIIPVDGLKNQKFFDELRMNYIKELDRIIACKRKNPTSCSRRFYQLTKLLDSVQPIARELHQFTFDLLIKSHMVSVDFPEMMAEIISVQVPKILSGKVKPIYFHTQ
Assay: two-hybrid; mammalian two-hybrid in 293T cells, Gal4-tk-luc reporter, 10 nM DHT, with FKBP52 overexpressed
Conditions: partners not purified

fold enhancement of the two-hybrid signal by overexpressed FKBP52: 4.5 fold
B1: VP16-AD fused to the full-length β-catenin (natural protein, UniProt P35222 1-781, looked up)
chain: MATQADLMELDMAMEPDRKAAVSHWQQQSYLDSGIHSGATTTAPSLSGKGNPEEEDVDTSQVLYEWEQGFSQSFTQEQVADIDGQYAMTRAQRVRAAMFPETLDEGMQIPSTQFDAAHPTNVQRLAEPSQMLKHAVVNLINYQDDAELATRAIPELTKLLNDEDQVVVNKAAVMVHQLSKKEASRHAIMRSPQMVSAIVRTMQNTNDVETARCTAGTLHNLSHHREGLLAIFKSGGIPALVKMLGSPVDSVLFYAITTLHNLLLHQEGAKMAVRLAGGLQKMVALLNKTNVKFLAITTDCLQILAYGNQESKLIILASGGPQALVNIMRTYTYEKLLWTTSRVLKVLSVCSSNKPAIVEAGGMQALGLHLTDPSQRLVQNCLWTLRNLSDAATKQEGMEGLLGTLVQLLGSDDINVVTCAAGILSNLTCNNYKNKMMVCQVGGIEALVRTVLRAGDREDITEPAICALRHLTSRHQEAEMAQNAVRLHYGLPVVVKLLHPPSHWPLIKATVGLIRNLALCPANHAPLREQGAIPRLVQLLVRAHQDTQRRTSMGGTQQQFVEGVRMEEIVEGCTGALHILARDVHNRIVIRGLNTIPLFVQLLYSPIENIQRVAAGVLCELAQDKEAAEAIEAEGATAPLTELLHSRNEGVATYAAAVLFRMSEDKPQDYKKRLSVELTSSLFRTEPMAWNETADLGLDIGAQGEPLGYRQDDPSYRSFHSGGYGQDALGMDPMMEHEMGGHHPGADYPVDGLPDLGHAQDLMDGLPPGDSNQLAWFDTDL
notes: β-catenin, full length; NheI-XbaI fragment of pCI-neo-β-catenin inserted into the pACT vector (Promega); also called Vp16-β-catenin; VP16-β-catenin
